Test [1] addresses T1, Recombinant purified TRBC2 (human, UniProt A0A5B9 1-129, limits assumed).
T1 construct: Construct not described (may be a soluble TCR carrying TRBC2); also called TCR beta constant region 2; soluble recombinant biotinylated TRBC2
The experiment in a line: SPR, IgG captured on anti-human Fc, TRBC2 as analyte. An excerpt:
(§1) A series S CM5 sensor chip was immobilised via amine coupling, with an anti-human Fc capture antibody to a density of 9000-10000 RU, using a Biacore T200 instrument. HBS-P+ buffer was used as running buffer in all experimental conditions. The test anti-TRBC2 antibodies (Table 1) were captured on flow cells 2, 3 and 4 to a density of 100-300 RU. Recombinant purified TRBC1 or TRBC2 at known concentrations were used as the ‘analyte’ and injected over the respective flow cells with 150s contact time and 300s dissociation at 30 μl/minute of flow rate. In each experiment, flow cell 1 was unmodified and used for reference subtraction. A ‘0 concentration’ sensorgram of buffer alone was used as a double reference subtraction to factor for drift. Data were fit to a 1:1 Langmuir binding model. Since a capture system was used, a local Rₘₐₓ parameter was used for the data fitting in each case.

The target of test [2] is T2, Recombinant purified TRBC1 (human, UniProt P01850 1-129, limits assumed).
T2 construct: Construct not described (may be a soluble TCR carrying TRBC1); also called TCR beta constant region 1; soluble recombinant biotinylated TRBC1
T2 sequence (P01850 1-129 limits assumed): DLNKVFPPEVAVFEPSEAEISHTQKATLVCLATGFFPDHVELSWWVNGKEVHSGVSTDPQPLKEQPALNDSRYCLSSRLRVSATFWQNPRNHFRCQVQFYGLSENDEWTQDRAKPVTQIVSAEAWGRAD
The experiment in a line: SPR, IgG captured on anti-human Fc, TRBC1 as analyte.
Source text: as §1

Where a chain is given by its changes, count along the chain named. Names may count otherwise.

The results in this text go back to patent publication US20220041718A1 (AUTOLUS, published 2022).

T1 sequence (A0A5B9 1-129 limits assumed): as the sequence (P01850 1-129 limits assumed) above, with N3K, K4N, E9K, F36Y counted along it

B1: hJovi-1 variant IgG, VH T28K, Y32F, A100N; VL unmutated (antibody, V domains shown)
VH: QVQLVQSGAEVKKPGASVKVSCKASGYKFTGFVMHWVRQAPGQGLEWMGFINPYNDDIQSNERFRGRVTMTRDTSISTAYMELSRLRSDDTAVYYCARGNGYNFDGAYRFFDFWGQGTMVTVSS
VL: DIVMTQSPLSLPVTPGEPASISCRSSQRLVHSNGNTYLHWYLQKPGQSPRLLIYRVSNRFPGVPDRFSGSGSGTDFTLKISRVEAEDVGVYYCSQSTHVPYTFGQGTKLEIK
notes: IgG format; also called anti-TRBC2 triple mutant
With B1, the Kd worked out at 432 nM in test [1] and 2730 nM in test [2].

B2: hJovi-1 variant IgG, VH N103S, T28K, Y32F, A100N; VL N35F (antibody, V domains shown)
VH: B1 VH with N103S
VL: B1 VL with N35F
notes: IgG format
For B2, the equilibrium dissociation constant (Kd) in test [1] is 1560 nM; in test [2] it was 6580 nM.

B3: hJovi-1 variant IgG, VH N103S, T28K, Y32F, A100N; VL N35R (antibody, V domains shown)
VH: B1 VH with N103S
VL: B1 VL with N35R
notes: IgG format
For the molecule B3, the Kd amounted to 917 nM in test [1] and 3930 nM in test [2].

B4: hJovi-1 variant IgG, VH N103L, T28K, Y32F, A100N; VL N35F (antibody, V domains shown)
VH: B1 VH with N103L
VL: B1 VL with N35F
notes: IgG format
Regarding B4, the values for the dissociation constant (Kd) in test [1] and in test [2] were 369 nM and 1380 nM, respectively.

B5: hJovi-1 variant IgG, VH N103F, T28K, Y32F, A100N; VL N35M (antibody, V domains shown)
VH: B1 VH with N103F
VL: B1 VL with N35M
notes: IgG format
Regarding B5, the values for the Kd in test [1] and in test [2] were 130 nM and 459 nM, respectively.

B6: hJovi-1 variant IgG, VH T28K, Y32F, A100N, N103M; VL unmutated (antibody, V domains shown)
VH: B1 VH with N103M
VL: B1 VL
notes: IgG format
B6: the figures for the dissociation constant (Kd) in test [1] and in test [2] were 83.6 nM and 376 nM, respectively.

B7: hJovi-1 variant IgG, VH N103S, T28K, Y32F, A100N; VL N35Y (antibody, V domains shown)
VH: B1 VH with N103S
VL: B1 VL with N35Y
notes: IgG format
As to B7, the Kd in test [1] was 1880 nM; in test [2] it was 7830 nM.

B8: hJovi-1 variant IgG, VH N103S, T28K, Y32F, A100N; VL N35K (antibody, V domains shown)
VH: B1 VH with N103S
VL: B1 VL with N35K
notes: IgG format
With B8, the Kd in test [1] was 851 nM; in test [2] it was 3680 nM.

B9: hJovi-1 variant IgG, VH N103W, T28K, Y32F, A100N; VL N35F (antibody, V domains shown)
VH: B1 VH with N103W
VL: B1 VL with N35F
notes: IgG format
Turning to B9, the Kd in test [1] was determined as 510 nM; in test [2], 1680 nM.

B10: hJovi-1 variant IgG, VH N103F, T28K, Y32F, A100N; VL N35Y (antibody, V domains shown)
VH: B1 VH with N103F
VL: B1 VL with N35Y
notes: IgG format
For the molecule B10, the Kd in test [1] was 501 nM; in test [2] it was 1860 nM.

B11: hJovi-1 variant IgG, VH N103E, T28K, Y32F, A100N; VL N35M (antibody, V domains shown)
VH: B1 VH with N103E
VL: B1 VL with N35M
notes: IgG format
As to B11, the Kd in test [1] came to 2130 nM; in test [2], 5830 nM.

B12: hJovi-1 variant IgG, VH G31R, Y32F, A100N; VL unmutated (antibody, V domains shown)
VH: B1 VH with K28T, G31R
VL: B1 VL
notes: IgG format
For B12, the equilibrium dissociation constant (Kd) in test [1] amounted to 1360 nM; in test [2] it was 3140 nM.

B13: hJovi-1 variant IgG, VH N103S, T28K, Y32F, A100N; VL N35M (antibody, V domains shown)
VH: B1 VH with N103S
VL: B1 VL with N35M
notes: IgG format
B13: the dissociation constant (Kd) in test [1] turned out to be 1830 nM; in test [2], 8220 nM.

B14: hJovi-1 variant IgG, VH N103L, T28K, Y32F, A100N; VL N35R (antibody, V domains shown)
VH: B1 VH with N103L
VL: B1 VL with N35R
notes: IgG format
For the molecule B14, the Kd in test [1] worked out at 201 nM; in test [2], 810 nM.

B15: hJovi-1 variant IgG, VH T28K, Y32F, A100N, N103A; VL unmutated (antibody, V domains shown)
VH: B1 VH with N103A
VL: B1 VL
notes: IgG format
As to B15, the Kd in test [1] was 714 nM; in test [2], 3390 nM.

B16: hJovi-1 variant IgG, VH T28K, G31R, Y32F, A100N; VL unmutated (antibody, V domains shown)
VH: B1 VH with G31R
VL: B1 VL
notes: IgG format
For the molecule B16, the Kd turned out to be 4950 nM in test [1] and 17400 nM in test [2].

B17: hJovi-1 variant IgG, VH N103L, T28K, Y32F, A100N; VL N35K (antibody, V domains shown)
VH: B1 VH with N103L
VL: B1 VL with N35K
notes: IgG format
As for B17, the Kd in test [1] worked out at 187 nM; in test [2], 707 nM.

B18: hJovi-1 variant IgG, VH T28K, Y32F, A100N, A107S; VL unmutated (antibody, V domains shown)
VH: B1 VH with A107S
VL: B1 VL
notes: IgG format
On to B18, for which the Kd in test [1] was 1160 nM; in test [2] it was 3590 nM.

B19: hJovi-1 variant IgG, VH N103W, T28K, Y32F, A100N; VL N35M (antibody, V domains shown)
VH: B1 VH with N103W
VL: B1 VL with N35M
notes: IgG format
On to B19, for which the values for the Kd in test [1] and in test [2] were 611 nM and 2280 nM, respectively.

B20: hJovi-1 variant IgG, VH N103L, T28K, Y32F, A100N; VL N35Y (antibody, V domains shown)
VH: B1 VH with N103L
VL: B1 VL with N35Y
notes: IgG format
For B20, the Kd turned out to be 480 nM in test [1] and 1930 nM in test [2].

B21: hJovi-1 variant IgG, VH T28K, Y32F, A100N, N103H; VL unmutated (antibody, V domains shown)
VH: B1 VH with N103H
VL: B1 VL
notes: IgG format
As for B21, the dissociation constant (Kd) is 416 nM in test [1] and 2020 nM in test [2].

B22: hJovi-1 variant IgG, VH T28K, Y32F, A100N, N103M; VL N35M (antibody, V domains shown)
VH: B1 VH with N103M
VL: B1 VL with N35M
notes: IgG format
As for B22, the figures for the Kd in test [1] and in test [2] were 131 nM and 648 nM, respectively.

B23: hJovi-1 variant IgG, VH T28K, Y32F, A100N, N103F; VL unmutated (antibody, V domains shown)
VH: B1 VH with N103F
VL: B1 VL
notes: IgG format
B23: the Kd in test [1] worked out at 270 nM; in test [2], 1060 nM.

B24: hJovi-1 variant IgG, VH T28K, Y32F, A100N, N103E; VL unmutated (antibody, V domains shown)
VH: B1 VH with N103E
VL: B1 VL
notes: IgG format
In the case of B24, the Kd in test [1] turned out to be 1300 nM; in test [2], 2930 nM.

B25: hJovi-1 variant IgG, VH T28K, Y32F, A100N, N103M; VL N35Y (antibody, V domains shown)
VH: B1 VH with N103M
VL: B1 VL with N35Y
notes: IgG format
Consider B25, for which the Kd in test [1] is 172 nM; in test [2], 733 nM.

B26: hJovi-1 variant IgG, VH N103M, T28K, Y32F, A100N; VL N35F (antibody, V domains shown)
VH: B1 VH with N103M
VL: B1 VL with N35F
notes: IgG format
As to B26, the Kd in test [1] came out at 130 nM; in test [2] it was 459 nM.

B27: hJovi-1 variant IgG, VH T28K, Y32F, A100N, N103L; VL unmutated (antibody, V domains shown)
VH: B1 VH with N103L
VL: B1 VL
notes: IgG format
For the molecule B27, the Kd in test [1] came to 302 nM; in test [2] it was 1280 nM.

B28: hJovi-1 variant IgG, VH T28K, Y32F, A100N, N103M; VL N35R (antibody, V domains shown)
VH: B1 VH with N103M
VL: B1 VL with N35R
notes: IgG format
Take B28: the figures for the Kd in test [1] and in test [2] were 90.3 nM and 290 nM, respectively.

B29: hJovi-1 variant IgG, VH N103W, T28K, Y32F, A100N; VL N35R (antibody, V domains shown)
VH: B1 VH with N103W
VL: B1 VL with N35R
notes: IgG format
For the molecule B29, the Kd in test [1] was determined as 390 nM; in test [2] it was 1730 nM.

B30: hJovi-1 variant IgG, VH N103W, T28K, Y32F, A100N; VL N35K (antibody, V domains shown)
VH: B1 VH with N103W
VL: B1 VL with N35K
notes: IgG format
Consider B30, for which the Kd in test [1] was 417 nM; in test [2], 1680 nM.

B31: hJovi-1 variant IgG, VH N103L, T28K, Y32F, A100N; VL N35M (antibody, V domains shown)
VH: B1 VH with N103L
VL: B1 VL with N35M
notes: IgG format
B31: the figures for the Kd in test [1] and in test [2] were 364 nM and 1500 nM, respectively.

B32: hJovi-1 variant IgG, VH T28K Y32F A100N; VL R55K (antibody, V domains shown)
VH: B1 VH
VL: B1 VL with R55K
notes: IgG format
With B32, the Kd in test [1] stood at 165 nM; in test [2], 962 nM.

B33: hJovi-1 variant IgG, VH N103F, T28K, Y32F, A100N; VL N35F (antibody, V domains shown)
VH: B1 VH with N103F
VL: B1 VL with N35F
notes: IgG format
Consider B33, for which the Kd in test [1] amounted to 459 nM; in test [2], 1610 nM.

B34: hJovi-1 variant IgG, VH G31S, T28K, Y32F, A100N; VL unmutated (antibody, V domains shown)
VH: B1 VH with G31S
VL: B1 VL
notes: IgG format
Regarding B34, the Kd was found to be 1170 nM in test [1] and 3680 nM in test [2].

B35: hJovi-1 variant IgG, VH T28K, Y32F, A100N, N103F; VL N35K (antibody, V domains shown)
VH: B1 VH with N103F
VL: B1 VL with N35K
notes: IgG format
Take B35: the Kd was found to be 294 nM in test [1] and 881 nM in test [2].
